Test results reported in the supplement of paper PMC9112550, “Optimization of the antimicrobial peptide Bac7 by deep mutational scanning” (BMC Biology, 2022).

system: Escherichia coli TOP10; experiment: shrunken log2 fold change of peptide-encoding DNA abundance (4.5 h post-induction vs induction); higher = less antimicrobial activity (less host growth inhibition); conditions: time post-induction: 4.5 h; library: site-saturation at positions 5, 18, 19, 20
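Further: peptides expressed intracellularly from a pBAD plasmid library in pooled LB shake-flask culture, induced with 0.3% L-arabinose, DNA abundance read by NGS, three biological replicates, DESeq2 with apeglm shrinkage.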

Question: With RRIRVRPPRLPRPRPRPCGSPRP as the sequence, how does the “shrunken log2 fold change” value read?
Answer: -0.225

Question: Which “shrunken log2 fold change” value does the source give for RRIRLRPPRLPRPRPRPGWNPRP here?
Answer: 0.000784

Question: Which “shrunken log2 fold change” value does the source give for RRIRARPPRLPRPRPRPQQWPRP here?
Answer: 0.2

Question: How did the “shrunken log2 fold change” value turn out when RRIRYRPPRLPRPRPRPWRMPRP was run?
Answer: -0.369

Question: RRIRCRPPRLPRPRPRPSTSPRP was tested. Which “shrunken log2 fold change” value did it give?
Answer: -0.282

Question: For RRIRSRPPRLPRPRPRPFGAPRP, which “shrunken log2 fold change” value is on record?
Answer: 0.162

Question: How did the “shrunken log2 fold change” value turn out when RRIRNRPPRLPRPRPRPNPQPRP was run?
Answer: 0.166

Question: RRIRKRPPRLPRPRPRPRIEPRP was tested. Which “shrunken log2 fold change” value did it give?
Answer: 0.112

Question: Which “shrunken log2 fold change” value does the source give for RRIRTRPPRLPRPRPRPGNSPRP here?
Answer: -0.169

Question: Which “shrunken log2 fold change” value does the source give for RRIRPRPPRLPRPRPRPPVLPRP here?
Answer: -0.0339

Question: How did the “shrunken log2 fold change” value turn out when RRIRIRPPRLPRPRPRPAAMPRP was run?
Answer: 0.391

Question: Which “shrunken log2 fold change” value does the source give for RRIRPRPPRLPRPRPRPNCTPRP here?
Answer: -0.0727

Question: With RRIRERPPRLPRPRPRPIVCPRP as the sequence, how does the “shrunken log2 fold change” value read?
Answer: -0.022

Question: Which “shrunken log2 fold change” value does the source give for RRIRVRPPRLPRPRPRPNDHPRP here?
Answer: -0.302

Question: For RRIRQRPPRLPRPRPRPLKAPRP, which “shrunken log2 fold change” value is on record?
Answer: -0.253

Question: Which “shrunken log2 fold change” value does the source give for RRIRSRPPRLPRPRPRPVCNPRP here?
Answer: 0.413

Question: For RRIRKRPPRLPRPRPRPPNYPRP, which “shrunken log2 fold change” value is on record?
Answer: -0.19

Question: For RRIRSRPPRLPRPRPRPRCIPRP, which “shrunken log2 fold change” value is on record?
Answer: -0.155

Question: How did the “shrunken log2 fold change” value turn out when RRIRERPPRLPRPRPRPDQIPRP was run?
Answer: -0.084

Question: With RRIRDRPPRLPRPRPRPEKLPRP as the sequence, how does the “shrunken log2 fold change” value read?
Answer: 0.19

Question: With RRIRERPPRLPRPRPRPWHCPRP as the sequence, how does the “shrunken log2 fold change” value read?
Answer: -0.0723

Question: With RRIRKRPPRLPRPRPRPKLYPRP as the sequence, how does the “shrunken log2 fold change” value read?
Answer: 0.164

Question: With RRIRDRPPRLPRPRPRPTYVPRP as the sequence, how does the “shrunken log2 fold change” value read?
Answer: -0.0733

Question: How did the “shrunken log2 fold change” value turn out when RRIRVRPPRLPRPRPRPDYNPRP was run?
Answer: -0.554

Question: With RRIRSRPPRLPRPRPRPGWRPRP as the sequence, how does the “shrunken log2 fold change” value read?
Answer: 0.923

Question: With RRIRQRPPRLPRPRPRPPTEPRP as the sequence, how does the “shrunken log2 fold change” value read?
Answer: -0.153

Question: Which “shrunken log2 fold change” value does the source give for RRIRDRPPRLPRPRPRPKGHPRP here?
Answer: 0.0517

Question: How did the “shrunken log2 fold change” value turn out when RRIRMRPPRLPRPRPRPPNNPRP was run?
Answer: 0.436

Question: Which “shrunken log2 fold change” value does the source give for RRIRMRPPRLPRPRPRPWVPPRP here?
Answer: -0.0184

Question: With RRIRYRPPRLPRPRPRPGVVPRP as the sequence, how does the “shrunken log2 fold change” value read?
Answer: -0.354

Question: With RRIRHRPPRLPRPRPRPQPYPRP as the sequence, how does the “shrunken log2 fold change” value read?
Answer: -1.53

Question: Which “shrunken log2 fold change” value does the source give for RRIRLRPPRLPRPRPRPWCQPRP here?
Answer: -0.0199

Question: With RRIRERPPRLPRPRPRPPEQPRP as the sequence, how does the “shrunken log2 fold change” value read?
Answer: 0.251

Question: RRIRPRPPRLPRPRPRPHEGPRP was tested. Which “shrunken log2 fold change” value did it give?
Answer: 0.0172

Question: For RRIRRRPPRLPRPRPRPEPGPRP, which “shrunken log2 fold change” value is on record?
Answer: 0.587

Question: RRIRARPPRLPRPRPRPTMMPRP was tested. Which “shrunken log2 fold change” value did it give?
Answer: 0.496

Question: For RRIRNRPPRLPRPRPRPNWTPRP, which “shrunken log2 fold change” value is on record?
Answer: -0.0743

Question: How did the “shrunken log2 fold change” value turn out when RRIRLRPPRLPRPRPRPVNDPRP was run?
Answer: -0.52

Question: RRIRERPPRLPRPRPRPDCFPRP was tested. Which “shrunken log2 fold change” value did it give?
Answer: 0.316

Question: With RRIRLRPPRLPRPRPRPVHYPRP as the sequence, how does the “shrunken log2 fold change” value read?
Answer: -0.498

Question: How did the “shrunken log2 fold change” value turn out when RRIRPRPPRLPRPRPRPEIDPRP was run?
Answer: -0.0829

Question: With RRIRCRPPRLPRPRPRPQMLPRP as the sequence, how does the “shrunken log2 fold change” value read?
Answer: 0.0498

Question: Which “shrunken log2 fold change” value does the source give for RRIRGRPPRLPRPRPRPHMNPRP here?
Answer: 0.298

Question: For RRIRPRPPRLPRPRPRPMMLPRP, which “shrunken log2 fold change” value is on record?
Answer: -0.143

Question: With RRIRWRPPRLPRPRPRPLVDPRP as the sequence, how does the “shrunken log2 fold change” value read?
Answer: 0.0816

Question: For RRIRPRPPRLPRPRPRPRWKPRP, which “shrunken log2 fold change” value is on record?
Answer: 0.176

Question: Which “shrunken log2 fold change” value does the source give for RRIRRRPPRLPRPRPRPRAWPRP here?
Answer: -0.0407

Question: Which “shrunken log2 fold change” value does the source give for RRIRHRPPRLPRPRPRPKTDPRP here?
Answer: -0.434

Question: With RRIRKRPPRLPRPRPRPLPEPRP as the sequence, how does the “shrunken log2 fold change” value read?
Answer: 0.351

Question: How did the “shrunken log2 fold change” value turn out when RRIRPRPPRLPRPRPRPGWQPRP was run?
Answer: 0.0481

Question: With RRIRGRPPRLPRPRPRPGEPPRP as the sequence, how does the “shrunken log2 fold change” value read?
Answer: 0.276

Question: For RRIRCRPPRLPRPRPRPKVHPRP, which “shrunken log2 fold change” value is on record?
Answer: -0.0287

Question: How did the “shrunken log2 fold change” value turn out when RRIRQRPPRLPRPRPRPYSVPRP was run?
Answer: -0.00968

Question: RRIRLRPPRLPRPRPRPNWTPRP was tested. Which “shrunken log2 fold change” value did it give?
Answer: -0.084

Question: Which “shrunken log2 fold change” value does the source give for RRIRMRPPRLPRPRPRPINWPRP here?
Answer: -0.011

Question: With RRIRFRPPRLPRPRPRPKTVPRP as the sequence, how does the “shrunken log2 fold change” value read?
Answer: -0.117

Question: RRIRTRPPRLPRPRPRPNAIPRP was tested. Which “shrunken log2 fold change” value did it give?
Answer: -0.797

Question: Which “shrunken log2 fold change” value does the source give for RRIRRRPPRLPRPRPRPGMFPRP here?
Answer: 0.00289

Question: RRIRTRPPRLPRPRPRPPVVPRP was tested. Which “shrunken log2 fold change” value did it give?
Answer: -0.0715

Question: RRIRWRPPRLPRPRPRPQVSPRP was tested. Which “shrunken log2 fold change” value did it give?
Answer: -0.0705

Question: With RRIRYRPPRLPRPRPRPLIMPRP as the sequence, how does the “shrunken log2 fold change” value read?
Answer: -0.0566

Question: RRIRFRPPRLPRPRPRPAKHPRP was tested. Which “shrunken log2 fold change” value did it give?
Answer: -0.149

Question: For RRIRVRPPRLPRPRPRPSRRPRP, which “shrunken log2 fold change” value is on record?
Answer: 0.157

Question: RRIRYRPPRLPRPRPRPDSAPRP was tested. Which “shrunken log2 fold change” value did it give?
Answer: -0.378

Question: How did the “shrunken log2 fold change” value turn out when RRIRPRPPRLPRPRPRPKEAPRP was run?
Answer: -0.0122

Question: RRIRYRPPRLPRPRPRPNFWPRP was tested. Which “shrunken log2 fold change” value did it give?
Answer: 0.293

Question: RRIRSRPPRLPRPRPRPQMRPRP was tested. Which “shrunken log2 fold change” value did it give?
Answer: 0.691

Question: RRIRQRPPRLPRPRPRPEELPRP was tested. Which “shrunken log2 fold change” value did it give?
Answer: -0.0362

Question: How did the “shrunken log2 fold change” value turn out when RRIRARPPRLPRPRPRPKLCPRP was run?
Answer: 0.225

Question: Which “shrunken log2 fold change” value does the source give for RRIRRRPPRLPRPRPRPFGDPRP here?
Answer: -0.0397

Question: With RRIRDRPPRLPRPRPRPSVVPRP as the sequence, how does the “shrunken log2 fold change” value read?
Answer: -0.0127

Question: For RRIRKRPPRLPRPRPRPYAPPRP, which “shrunken log2 fold change” value is on record?
Answer: -0.241

Question: RRIRERPPRLPRPRPRPECQPRP was tested. Which “shrunken log2 fold change” value did it give?
Answer: -0.0134

Question: With RRIRWRPPRLPRPRPRPDISPRP as the sequence, how does the “shrunken log2 fold change” value read?
Answer: -0.135

Question: RRIRERPPRLPRPRPRPTDNPRP was tested. Which “shrunken log2 fold change” value did it give?
Answer: -0.841
